Measurements taken from article PMC10516627 (Nucleic Acids Research, 2023).

Target: GST-RNF168 (human, UniProt Q8IYW5 1-571)
Test: pull-down

GST-RNF168, sequence (Q8IYW5 whole entry): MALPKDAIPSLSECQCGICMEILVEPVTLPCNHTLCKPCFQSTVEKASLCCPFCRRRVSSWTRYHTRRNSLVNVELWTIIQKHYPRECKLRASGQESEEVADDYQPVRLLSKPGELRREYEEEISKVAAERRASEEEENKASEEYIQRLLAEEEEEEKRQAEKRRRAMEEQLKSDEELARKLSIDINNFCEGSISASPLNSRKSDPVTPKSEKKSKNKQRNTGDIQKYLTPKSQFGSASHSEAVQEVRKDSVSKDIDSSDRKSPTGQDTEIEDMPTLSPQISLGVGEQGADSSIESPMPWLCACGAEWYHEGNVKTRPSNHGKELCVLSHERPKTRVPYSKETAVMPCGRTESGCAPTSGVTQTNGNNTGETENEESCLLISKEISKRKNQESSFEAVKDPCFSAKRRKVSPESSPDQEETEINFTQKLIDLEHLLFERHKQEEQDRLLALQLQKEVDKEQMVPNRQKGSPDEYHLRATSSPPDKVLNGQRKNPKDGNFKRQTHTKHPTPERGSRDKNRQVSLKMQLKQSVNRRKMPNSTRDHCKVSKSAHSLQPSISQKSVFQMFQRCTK

binding result	Binder
binds	His-HDAC6 DAC1 domain (1-440 aa) (domain or fragment, human, UniProt Q9UBN7 1-440, looked up) MTSTGQDSTTTRQRRSRQNPQSPPQDSSVTSKRNIKKGAVPRSIPNLAEVKKKGKMKKLGQAMEEDLIVGLQGMDLNLEAEALAGTGLVLDEQLNEFHCLWDDSFPEGPERLHAIKEQLIQEGLLDRCVSFQARFAEKEELMLVHSLEYIDLMETTQYMNEGELRVLADTYDSVYLHPNSYSCACLASGSVLRLVDAVLGAEIRNGMAIIRPPGHHAQHSLMDGYCMFNHVAVAARYAQQKHRIRRVLIVDWDVHHGQGTQFTFDQDPSVLYFSIHRYEQGRFWPHLKASNWSTTGFGQGQGYTINVPWNQVGMRDADYIAAFLHVLLPVALEFQPQLVLVAAGFDALQGDPKGEMAATPAGFAQLTHLLMGLAGGKLILSLEGGYNLRALAEGVSASLHTLLGDPCPMLESPGAPCRSAQASVSCALEALEPFWEVLVR
binds	His-HDAC6 DAC2 domain (441-835 aa) (domain or fragment, human, UniProt Q9UBN7 441-835, looked up) STETVERDNMEEDNVEESEEEGPWEPPVLPILTWPVLQSRTGLVYDQNMMNHCNLWDSHHPEVPQRILRIMCRLEELGLAGRCLTLTPRPATEAELLTCHSAEYVGHLRATEKMKTRELHRESSNFDSIYICPSTFACAQLATGAACRLVEAVLSGEVLNGAAVVRPPGHHAEQDAACGFCFFNSVAVAARHAQTISGHALRILIVDWDVHHGNGTQHMFEDDPSVLYVSLHRYDHGTFFPMGDEGASSQIGRAAGTGFTVNVAWNGPRMGDADYLAAWHRLVLPIAYEFNPELVLVSAGFDAARGDPLGGCQVSPEGYAHLTHLLMGLASGRIILILEGGYNLTSISESMAACTRSLLGDPPPLLTLPRPPLSGALASITETIQVHRRYWRSLR
